Results on 19 sequences are retold here after the DeepSol protein solubility set.

A short description of this data set: soluble on expression in E. coli; label from the status in PepcDB or PDB records.
With “MAHHHHHHMGKPKYLKKKQAAAAAGSEDGADKDVSDNTENTNGSPTTTNALGKQSEAAKEEPHSSGAMVSFANPVYRQGVNDILVEKLDISYQGNAILENATLNLVSGHRYGLVGPNGCGKSTLLRVLGCHEIPFPSHVDRYYVSQEVEASDMSALDAVLAVDKEREKLESEMEDLALGDQEDPHVLSRLDDIYKRLDELDADTAAARAGKILFGLGFTKEMQRRPTKAFSGGWRMRISLAQALFINPTVLLLDEPTNHLDIEAVVWLENYLSKFKKTLFMVSHSQDFMNNVCTDICHMHLKKLNCYDGNYDQYCITREEKESNQMKKYQWEQNQIKNMKEYIARFGHGSAKLARQAQSKEKTLAKMTRGGLTDAVVKDSRINFEFPCAGPLPPPMLQFREVSFNYPGRPSLFTNLDLGVNMDSRICLVGPNGAGKTTLTKLMCRELEPTAGYVAKNAHCVMARFHQHFVDQINMDLTPLEWMSQEYPDVTQPPILRSALGRFGVSGKAQMTPMKTLSDGQKSRVVFAWMAYKRPHFMILDEPTNHLDIESIDALADAINNFEGAVVVVSHDLRLLAQVADEIWIVEQGEAKRFNGDIADYKEHVQNEVNRMMQNYAASL”, the “soluble on expression in E. coli” value is given as “not soluble”.
As to “GMEKRLDYITDLMALGPTANARTIQRRQTAHRLAIAEAWQVKPGEKILEIGCGQGDLSAVLADQVGSSGHVTGIDIASPDYGAPLTLGQAWNHLLAGPLGDRLTVHFNTNLSDDLGPIADQHFDRVVLAHSLWYFASANALALLFKNMAAVCDHVDVAEWSMQPTALDQIGHLQAAMIQGLLYAIAPSDVANIRTLITPDTLAQIAHDNTWTYTAGTIVEDPTLDDAHWEIATTNALLTELKLSTDLRDRVKPLLEAMSHNGTASLATFTGRITF”, the “soluble on expression in E. coli” value was “soluble”.
With “MYNDELIESSKIKWQLFLKGDDDAYAWLYSRYVQQLYQYGCRFTTDTEMVKDCVQDVFVNVYRQKDRYSSPPDNVKIYLMSSLRNSIFNVFNKGNLHDTYISNINYEFDLSVEEKLIETEDETSQKHTVAHLLNTLSPRQREIIYYRFFEGLDYSAICELMGLNYQSAYNLLQRSLSRLREMYGILPFFFLF”, the “soluble on expression in E. coli” value is reported as “not soluble”.
With “MMQMPKIGIIGGSGVYGVFEPKEVVKVHTPYGRPSAPIEIGEIEGVEVAFIPRHGKYHEFPPHQVPYRANIWALHELGVERVIAINAVGSLKEEYKPGDIVIIDQFIDFTKKREYTFYNGPKVAHVSMADPFCPELRKIFIETAKELNLPVHERGTYVCIEGPRFSTRAESRMFRQFADVIGMTLVPEVNLARELGMCYVNISTVTDYDVWAEKPVDAQEVLRVMKENEEKVQKLLKRAIPKIPEERKCGCADVLKTMFV” the entry was “soluble”; with “MTHRPELHVTPEIGILDAPAGALFDGTRWHLFHQFRPKATAPSRWAHDYATTDPFNWEICDDVIAPQGDEIRLRAGSVTSDGKTTRLYFTSITNEGDSIHLAEITDLDATTYDVNDDATTTDPHVTRLGQVVADQGGYTNFRSPCVVPNWVTADDRDEGHSGWIMLAVTGDMDEPTLVILDSENGTDWELRGPLKVVGNSGIEAERPVAPRIIRLRDEIDQNVYDILIVTIEIGGIDRSGYLVGKLHNNIFTVVSPFTRIDYGHDFTRPRNTNYTSHLNSSVAPEHRYSHAHVFGLMNGIGRLDDATTHLSFREEQWANCLSLPRRMTLQGGKIYHTPVAGLPDAIRDSDHAIMWTGLLDVPLGEKVTVELVDTTGNIAAKITHYGDLLELDRSMNPHHEGDDIAVAPLTEDDTDSVTIIVDGSTVEVFADGGQIAMASRVYFNGYCEAFTPQASDGADILRSDVTKPLG”, “not soluble”.
“MGSDKIHHHHHHMTMIRVNDVLSVGPQPSISEIRSLAGHGFAGMINARPDGEEASQPGNAAEREAAGHADVPYTFIPVTMPTITEADVRAFQRAMADAGGPVFAHCKTGTRALTLYALGEALDGRMSSQDMAALGQKLGIDLSAASRWFEAHRQLRPDVKGFFDPRTGSVQYVVSDPDTRKCAIVDPVLDFDEKSGATTTRNADAMLSYIAENGLSVEWILDTHPHADHFSAAQYLKEKTGAPTAIGAPVVDVQRLWRGIYNWPELRVDGSQWDRLFSDGDTFKVGSMAARVMFSPGHTLASITYVIGNAAFVHDTIFMPDSGTARADFPGGDARVLWKSIQKILDLPDETRLFTGHDYQPGGRAPKWESTVGEQKRANAHLAGVNEEAFAGLRVARDRTLPMPKLILHALQVNIQAGRLPEPEPNGTRYLKFPLDALQGAVW”: the “soluble on expression in E. coli” value was “not soluble”.
The result for “IFPFKEPPMALEKHGTCLCGDTRLTVTVDNTHISACHCSMCRKWTGGPLLVVHCSKPPLIEGRAPSVYDSSDWAQRAFCGRCGTHLYYRLKANDFHAVPVGLLDGDQAWDFDLQIFVEEKPAWYCFANQTKELSGQE” reads “not soluble”.
Regarding “HEGVHRKPSLLAHPGPLVKSEETVILQCWSDVRFQHFLLHREGKFKDTLHLIGEHHDGVSKANFSIGPMMQDLAGTYRCYGSVTHSPYQLSAPSDPLDIVITGLYEKPSLSAQPGPTVLAGESVTLSCSSRSSYDMYHLSREGEAHERRFSAGPKVNGTFQADFPLGPATHGGTYRCFGSFRDSPYEWSNSSDPLLVSVTGNPSNSWPSPTEPSSETGNPRHLHAAAEQKLISEEDLNLDLVPRGSSSHHHHHHSSG”, the “soluble on expression in E. coli” value is “soluble”.
The result for “ESSFTYTLDEKVAELVEFLLLKYEAEEPVTEAEMLMIVIKYKDYFPVILKRAREFMELLFGLALIEVGPDHFCVFANTVGLTDEGSDDEGMPENSLLIIILSVIFIKGNCASEEVIWEVLNAVGVYAGREHFVYGEPRELLTKVWVQGHYLEYREVPHSSPPYYEFLWGPRAHSESIKKKVLEFLAKLNNTVPSSFPSWYKDALKDVEERVQATIDTADD” reads “soluble”.
As for “LRVFSSDGKLIAEFGEMRRTPIRFAEIPPNFINALLSAEDDNFANHYGVDPSSLMRAATQLVKSGHIQSGGSTITMQVAKNFFLTSERSFSRKTTEILLALQIERQLTKDEILELYVNKIYLGNRAYGIEAAAQVYYGKSIRDVSLAQMAMIAGLPKAPSRFNPLANA”, the “soluble on expression in E. coli” value is “not soluble”.
The result for “MIKGIGLDMIDLERVKQVVEKNPRFIERVLTEKEIKQFEKYEGNRKIEFLAGRFAAKEAYAKANGTGFGKHLSFTDVEILQVEDGRPHVTLPVKSGENVFVSITHTARSAAAQVIIEI” reads “not soluble”.
The result for “MIDTNLLRVTVCDEGELEKSTTHFIGSRKIEPEQWITWASECKYLPESDAVALCATLIDRLSLEANVVPVSSPVTICGDIHGQFYDLLELFKTGGTVPNTKYVFMGDYVDRGHYSLETVTLLFCLLLKYPNQITLLRGNHESRRISNVYGFYDECQNKYGHGNVHKWFCKVFDVLPIGALIDESVLCVHGGLSPDIRTIDSLMLLDRAQEVPNKGPLCDIMWSDPDDDVEDWVISQRGAGFVFGAKVTEEFLMNNDLSLLCRSHQLVDEGFKYMFNEKLATVWSAPNYCYRCGNAAAVFEIDGNNRSTKYFNAVPDGSREKPDRVVAPYFL” reads “not soluble”; that for “MAAVVKSVALAGRPTTPDRVHEVLGRSMLVDGLDIVLDLTRSGGSYLVDAITGRRYLDMFTFVASSALGMNPPALVDDREFHAELMQAALNKPSNSDVYSVAMARFVETFARVLGDPALPHLFFVEGGALAVENALKAAFDWKSRHNQAHGIDPALGTQVLHLRGAFHGRSGYTLSLTNTKPTITARFPKFDWPRIDAPYMRPGLDEPAMAALEAEALRQARAAFETRPHDIACFVAEPIQGEGGDRHFRPEFFAAMRELCDEFDALLIFDEVQTGCGLTGTAWAYQQLDVAPDIVAFGKKTQVCGVMAGRRVDEVADNVFAVPSRLASTWGGNLTDMVRARRILEVIEAEGLFERAVQHGKYLRARLDELAADFPAVVLDPRGRGLMCAFSLPTTADRDELIRQLWQRAVIVLPAGADTVRFRPPLTVSTAEIDAAIAAVRSALPVVT”, “soluble”.
Take “MRYFIVAGEASGDLHASNLVRALKEHDPEAVFAFMGGDFLSEATGERPIFHYREVAFMGFIPVLTHLGVIRRAGEHVQEQMRAFNPDVVIAVDYPGFNMRYVLPFVREELGKPIVYYISPKVWAWKSWRIKTLKKYVDLMLCILPFEKDFFAGHDFPVIYVGNPCYDAVKQHMRPTIEEQERSAKDSRQVALLCGSRLLEVKENLPVMLRVMKQFPDYRPVIAGAPGLTIQDYTPFLPDDSIPVVFGRTYEILRESKAALVTSGTATLETALIGTPQVVCYYIRGGRLTNLIFKYCFGTPFISLTNLIAGRAVVPELFGALFTEKRLAASLSPLLDASSAERQAQLSGYDSIRKSIGTDNTSDKAARHIIARFAKDNARPSSL”: the “soluble on expression in E. coli” value was “not soluble”.
With “MTHELISLPYAVDALAPVISKETVEFHHGKHLKTYVDNLNKLIIGTEFENADLNTIVQKSEGGIFNNAGQTLNHNLYFTQFRPGKGGAPKGKLGEAIDKQFGSFEKFKEEFNTAGTTLFGSGWVWLASDANGKLSIEKEPNAGNPVRKGLNPLLGFDVWEHAYYLTYQNRRADHLKDLWSIVDWDIVESRY” the entry was “soluble”; with “MVQKLSRPSPDFLKGLKSILQGDHPSLKQLEQDINIFYMNQRQSQSMLEERKLYVALVRKYLKSEGVTKQLASQGIKLRGLSVFGSFPTHCASKDSDLDLCVCATATGNKKQLPVIILQAIFRDMMYSKEGQNIFGENVVSGISFVQTAKVPIIRFKINDVPVDLSATFDDNPRTSLAAKYINAYCQLDDRFKILVMFLKKWMKSEGRAEDHLRIYPNSYSIILLLIHVLQWYDILPNLHQTHSDLFHRGNFKLSDLAELRHEFKFPLDENTISMHRKRPSNDLTVVQLLYLFACQYSNHVVLLNYRFNMRNGEIEALSQKDQDYQITILDAYDVRNPGRSARNALDLVKTLEALKSLLVQPHEGMFKTVMEITRNRTYERVVPPPQVLYQDYDMQFGADPYNMPLVGSVEYQQWLEQVAMHHQIQMMQGQMMQQQIVFTAPEMYYYSQQQQQPHPIFGIQQSSQFF”, “not soluble”; with “MSGLIPAHGLSFRVDASTLTGQSSLLRASLGLDDVHLQVSAITEVKSVFVADAFDRGLVTVTADKEIAIWFPPNSATEQELFVRTLSAAMNGDGPIPQPVPHLDFVAVDVETTNSDWGSICQIGAAKVRDGHVVETKEWLCTPPGDLNSFDEANIAIHGITADMVATAPSFAECYDQFADFAGDLPLAAHNAQFDMTAFLRATQAADIRLRTTNFGCSLAAARAAHLPIANHKLPTVSQHLHVELRNHHNACADAEACAGILIALTQRLNTEITDFTSAFNMLGFHTGQLSDARVYPVLKVRGASSTPASPDSAAPAIQTPPAEKPRKATKAARAPWSKVATPETIPDPNPDADPQGRLFGQSVTLSGDFAPYDKGELWAGIANQGGIIGKNVTKKTTILVCGPWDKPTSKQKRAEELRAKGQEIDLWTQEDLFAQLGLNPEDEQPPF”, “not soluble”.
With “MELTMAKELIFIDWDDTLVNRENAEDFESVTDENNTIYQMSPMFIGAVEALKQLQEKYHVVIVSSRGDLNRLRQLQLQSYDLESSIMPLENFTFEDNDNRLLFTRYGETNFPDKASFILYIQKMSGNKIKVFIDDDHTEIEAAQSKGIPTIHATHNKYLQNTEQFFSGLIHQVDNMELSHIFNKVAAEIRNNSRSISWGRQIAGFFSVHLPIAQSLENLASKLQRKSANEVSEEFDQYLKKIAYDPNKKGDIAVSLTKAKTAIDKHISAPIEIKEDQPFLNRMI”, the “soluble on expression in E. coli” value was “not soluble”.
The result for “MWASPSPSVTVEFLEADSRLGGREVSLCKVAGQPDIRCECGWLELQPTRRSVNYEVVSSGGVTQSAALVTADFQSAEERSRLTVTVQLSSLARDMRDGYHEGFGAGLNNLASVAGRTMVLERVIKVPRNIVWKAWMNEKTLPQWWGPEGFSCRTKRIDLRTGGEWVFDMIGPDGTVFPNHHRYVEIRPEERLAYTLLWGENGPKHADAWASFEDQDGATKVVLGMVFSTDAEFQQAKGFGAVELGQQTLGKLERFAKFFLEHHHHHH” reads “soluble”.
